One series deals with T1, Aurora-A CAKD (Homo sapiens, UniProt O14965, C290A/C393A).
T1 construct: 25 μM Aurora-A kinase domain (phosphorylated or unphosphorylated C290A C393A 122–403); His (N, cleaved yes); made in house; host or cells: E. coli
T1 sequence (O14965 122-403 C290A/C393A): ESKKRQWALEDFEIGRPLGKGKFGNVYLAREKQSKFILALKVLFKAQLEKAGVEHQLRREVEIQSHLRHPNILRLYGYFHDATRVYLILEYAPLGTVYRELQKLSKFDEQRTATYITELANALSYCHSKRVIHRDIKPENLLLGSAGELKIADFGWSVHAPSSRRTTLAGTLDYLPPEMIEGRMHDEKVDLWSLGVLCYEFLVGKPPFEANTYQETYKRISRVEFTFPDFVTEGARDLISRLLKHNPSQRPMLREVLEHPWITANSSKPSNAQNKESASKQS
In words: Fluorescence anisotropy competition with FAM-TACC3 522-536. It is filed as binding. Particulars: in words. The method, then: Assays were performed in 25 mM HEPES pH 7.5, 150 mM NaCl, 2 mM DTT, 5 mM MgCl2, 0.01% Tween 20. For CEP192 and TPX2 competition assays 10 μM Aurora-A kinase domain (phosphorylated or unphosphorylated C290A C393A 122–403) was preincubated on ice with 100 nM FAM-TPX2 7-43 or 100 nM FAM-CEP192 501–533. For TACC3 competition, due to weaker binding, 25 μM Aurora-A kinase domain (phosphorylated or unphosphorylated C290A C393A 122–403) was preincubated with 100 nM FAM-TACC3 522-536. Serial dilutions of competitor (CEP192) were performed in triplicate into a low volume 384-well black plate, before the premixed Aurora-A and tracer were added. A control row included no tracer. Plates were left incubating for 1 h at room temperature before the fluorescence anisotropy was measured using a HIDEX plate reader, with excitation at 485 nm and emission at 535 nm. […]
(§1) Fluorescence anisotropy data were processed using Microsoft Excel to calculate intensity and anisotropy using the equation listed in (Yeo et al, [2013]). The IC50 and Kd values were calculated using Origin (OriginLab) where the data fitted to a sigmoid and are summarised in Appendix Table S3.

The next series concerns the target Aurora-A KD F165D/R205A. In words: ITC, CEP192 with Aurora-A KD F165D/R205A. It is filed as binding, human. Particulars: 25 °C, pH 7.5. The method, then:
(§2) Thermodynamic information was established using the ITC200 microcalorimeter (MicroCal, Northampton, MA). Proteins were dialysed overnight into 20 mM tris pH 7.5, 200 mM NaCl, 10% glycerol, 5 mM magnesium chloride (CEP192 constructs/mutants and Aurora-A 122–403 mutants). Experiments were carried out at 25 °C. The syringe contained 70 μl of 250 μM Aurora-A 122–403 (D274N C290A C393A or mutant). About 2 μl injections were applied every 180 s. The cell contained 205 μl of 25 μM CEP192 construct/mutant. Microcal Origin software version 7.0 was used to determine the dissociation constants (Kd). All measurements were repeated at least twice.

Series [1] concerns the target T2, phosphorylated Aurora-A CAKD (Homo sapiens, UniProt O14965, C290A/C393A).
T2 construct: 10 nM Aurora-A 122–403 C290A C393A phosphorylated protein; His (N, cleaved yes); made in house; host or cells: E. coli B834 (no lambda phosphatase)
T2 sequence (O14965 122-403 C290A/C393A): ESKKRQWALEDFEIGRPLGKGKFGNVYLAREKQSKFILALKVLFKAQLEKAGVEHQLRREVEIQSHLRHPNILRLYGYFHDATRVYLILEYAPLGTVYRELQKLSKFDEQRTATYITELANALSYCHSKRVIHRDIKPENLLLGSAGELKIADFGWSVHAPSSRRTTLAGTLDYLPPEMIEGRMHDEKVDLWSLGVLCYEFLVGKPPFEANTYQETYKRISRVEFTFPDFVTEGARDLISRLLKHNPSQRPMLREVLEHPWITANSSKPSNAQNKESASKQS
As to the kind of experiment: ITC, CEP192 with phosphorylated Aurora-A CAKD. The series is classed as binding. Particulars: ratio of Kd, phosphorylated vs unphosphorylated. On the procedure: as §2
(In general: ITC needs no label: the signal is the heat of the interaction.)

Series [2] concerns the target T2, phosphorylated Aurora-A CAKD. In words: ADP-Glo kinase assay, kemptide substrate. The series is classed as biochemical. The settings on record: ADP-Glo, phosphorylated Aurora-A CAKD, kemptide; in words. On the procedure: Reactions were initiated by the addition of 10 μM ATP and 100 μM kemptide as substrate (Cambridge Bioscience Ltd). The reactions were incubated at room temperature for 60 min before 5 μl was transferred into 5 ul of ADP-Glo Reagent (Promega) in a 384-well low volume low binding plate (Greiner Bio-one). After a further 40 min at room temperature, 10 μl of kinase detection reagent was added to each well, and the reaction was allowed to incubate for an additional 30 min. Luminescence was measured on a HIDEX Sense plate reader (HIDEX) using a 1 s integration time. Control data was subtracted from the luminescence and three repeats were averaged before being fitted to a sigmoidal plot using Origin (OriginLab), where IC50 and EC50 values were calculated.
(In ADP-Glo the light output rises with the ADP produced.)

For series [3], the target named is T3, unphosphorylated Aurora-A CAKD (Homo sapiens, UniProt O14965, C290A/C393A).
T3 construct: 10 μM Aurora-A kinase domain (phosphorylated or unphosphorylated C290A C393A 122–403); His (N, cleaved yes); made in house; host or cells: E. coli RIL, co-expressed with lambda phosphatase
T3 sequence (O14965 122-403 C290A/C393A): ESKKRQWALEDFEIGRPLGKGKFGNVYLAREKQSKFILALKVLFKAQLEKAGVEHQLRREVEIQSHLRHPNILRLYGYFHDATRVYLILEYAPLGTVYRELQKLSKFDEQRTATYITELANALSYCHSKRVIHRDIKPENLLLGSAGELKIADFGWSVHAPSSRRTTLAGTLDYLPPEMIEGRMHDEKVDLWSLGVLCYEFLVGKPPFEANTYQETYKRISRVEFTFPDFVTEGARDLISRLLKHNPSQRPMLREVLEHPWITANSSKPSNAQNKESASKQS
In words: Fluorescence anisotropy competition with FAM-CEP192 501-533, unphosphorylated Aurora-A. The series is classed as binding. On the procedure:
(§3) Assays were performed in 25 mM HEPES pH 7.5, 150 mM NaCl, 2 mM DTT, 5 mM MgCl2, 0.01% Tween 20. For CEP192 and TPX2 competition assays 10 μM Aurora-A kinase domain (phosphorylated or unphosphorylated C290A C393A 122–403) was preincubated on ice with 100 nM FAM-TPX2 7-43 or 100 nM FAM-CEP192 501–533. For TACC3 competition, due to weaker binding, 25 μM Aurora-A kinase domain (phosphorylated or unphosphorylated C290A C393A 122–403) was preincubated with 100 nM FAM-TACC3 522-536. Serial dilutions of competitor (CEP192) were performed in triplicate into a low volume 384-well black plate, before the premixed Aurora-A and tracer were added. A control row included no tracer. Plates were left incubating for 1 h at room temperature before the fluorescence anisotropy was measured using a HIDEX plate reader, with excitation at 485 nm and emission at 535 nm. For direct binding experiments, the assay was performed as above, but the Aurora-A (122–403 C290A C393A or point mutants) was diluted across the plate from high to low concentration, before the addition of 50 nM tracer (FAM-CEP192 501–533) to three replicate rows. Buffer only was added to the control row.
as §1
Background: Polarisation of emitted light reports the rotation of a fluorescent probe.

The target in series [4] is T2, phosphorylated Aurora-A CAKD. As to the kind of experiment: Fluorescence anisotropy competition with FAM-CEP192 501-533, phosphorylated Aurora-A. It is filed as binding. Particulars: competition with 100 nM FAM-CEP192 501-533, 10 μM phosphorylated Aurora-A CAKD, n = 3. On the procedure: as §3, §1
Series [5] has as its target T3, unphosphorylated Aurora-A CAKD. As to the kind of experiment: Fluorescence anisotropy competition with FAM-TPX2 7-43. The series is classed as binding. Particulars: for IC50: competition with 100 nM FAM-TPX2 7-43, 10 μM unphosphorylated Aurora-A CAKD, n = 3 (Appendix Fig. S4E). On the procedure:
as §3, §1

The term Kd denotes a measure of binding affinity in units of concentration. For orientation: IC50 means the midpoint of a concentration-inhibition curve. The low end stands for inhibition by little substance, the high end for a need for much substance.

B1: CEP192 468-533: recombinant human CEP192 aa 468–533, minimal binding region (protein)
chain: PQSVVYQNEEGRWVTDLAYYTSFNSKQNLNVSLSDEMNEDFRSGSEAFDLIAQDEEEFNKEHQFIQ
modifications: left off: His6, N-terminal, cleaved | SUMO, N-terminal, cleaved
Turning to B1, in the series with Aurora-A CAKD, the “competition for binding with FAM-TACC3 522-536” value is recorded as “competed for binding with FAM-TACC3_522-536”. The dissociation constant (Kd) at Aurora-A KD F165D/R205A is 26 ± 16 µM. Moreover, in series [1], the “difference in affinity compared to unphosphorylated Aurora-A” value was “around a twofold difference in affinity”. Moreover, the “effect on Aurora-A kinase activity” value in series [2] was “partially inhibited the activity”. In addition, the IC50 in series [3] (competition with 100 nM FAM-CEP192 501-533, 10 μM unphosphorylated Aurora-A CAKD, n = 3) was 1.42 µM; in series [4], 0.63 µM; in series [5] it was 3.24 µM; in series [5] (listed as WT CEP192), ~4 µM. Also, in series [3] (competition with FAM-CEP192 501-533, in words), the “ability to compete for binding, phosphorylated vs unphosphorylated Aurora-A” value is on record as “No significant difference”. Further, the “competition for binding with FAM-TPX2 7-43” value in series [5] (in words, Aurora-A CAKD) is given as “competed for binding with FAM-TPX2_7-43”.

For the origin of these results see PMC11574021, “CEP192 localises mitotic Aurora-A activity by priming its interaction with TPX2” (The EMBO Journal, 2024).
